The data set concerns Escherichia coli TOP10. Briefly: shrunken log2 fold change of peptide-encoding DNA abundance (4.5 h post-induction vs induction); higher = less antimicrobial activity (less host growth inhibition). The following applies: time post-induction: 4.5 h; library: site-saturation at positions 5, 18, 19, 20.
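Also: peptides expressed intracellularly from a pBAD plasmid library in pooled LB shake-flask culture, induced with 0.3% L-arabinose, DNA abundance read by NGS, three biological replicates, DESeq2 with apeglm shrinkage.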

Consider RRIRARPPRLPRPRPRPFDAPRP, for which the “shrunken log2 fold change” value was 0.116.
As for RRIRGRPPRLPRPRPRPHFSPRP, the figure is -0.115; as for RRIRNRPPRLPRPRPRPTKDPRP, -0.197.
As for RRIRFRPPRLPRPRPRPLEFPRP, the figure is -0.0464; as for RRIRFRPPRLPRPRPRPSARPRP, 0.0874; as for RRIRWRPPRLPRPRPRPWYDPRP, -0.31.
In the case of RRIRARPPRLPRPRPRPALMPRP, the “shrunken log2 fold change” value worked out at 0.534.
The same measure for RRIRRRPPRLPRPRPRPLQVPRP: 0.000182; for RRIRNRPPRLPRPRPRPVWWPRP: 0.259; for RRIRNRPPRLPRPRPRPLLGPRP: 0.232.
As for RRIRYRPPRLPRPRPRPSKFPRP, the figure is -0.299.
Consider RRIRWRPPRLPRPRPRPFSRPRP, for which the “shrunken log2 fold change” value was -0.0399.
As for RRIRYRPPRLPRPRPRPDQNPRP, the figure is -0.269; as for RRIRIRPPRLPRPRPRPGVLPRP, -0.0531; as for RRIRPRPPRLPRPRPRPCIFPRP, -0.359.
The same measure for RRIRHRPPRLPRPRPRPIPEPRP: -0.16; for RRIRLRPPRLPRPRPRPNSEPRP: -0.0888; for RRIRWRPPRLPRPRPRPCMDPRP: -0.18.
The same measure for RRIRTRPPRLPRPRPRPGLRPRP: 0.598; for RRIRCRPPRLPRPRPRPAPFPRP: 0.0214.
In the case of RRIRSRPPRLPRPRPRPFIEPRP, the “shrunken log2 fold change” value was -0.285.
The same measure for RRIRPRPPRLPRPRPRPVCAPRP: 0.396.
As to RRIRTRPPRLPRPRPRPQQVPRP, the “shrunken log2 fold change” value was -0.231.
The same measure for RRIRNRPPRLPRPRPRPYGEPRP: -0.16.
As to RRIRHRPPRLPRPRPRPVSQPRP, the “shrunken log2 fold change” value is 0.114.
As for RRIRARPPRLPRPRPRPTHGPRP, the figure is 0.644; as for RRIRQRPPRLPRPRPRPWFIPRP, -0.302.
As for RRIRLRPPRLPRPRPRPNHKPRP, the figure is -0.335; as for RRIRNRPPRLPRPRPRPDIEPRP, 0.0309; as for RRIRRRPPRLPRPRPRPYMPPRP, -0.186.
The same measure for RRIRNRPPRLPRPRPRPKWAPRP: -0.0431; for RRIRDRPPRLPRPRPRPIAQPRP: -0.0679; for RRIRNRPPRLPRPRPRPCIPPRP: -0.0387.
Consider RRIRNRPPRLPRPRPRPAYTPRP, for which the “shrunken log2 fold change” value is -0.262.
As for RRIRSRPPRLPRPRPRPGCKPRP, the figure is -0.00169; as for RRIRGRPPRLPRPRPRPSTQPRP, 0.82; as for RRIRVRPPRLPRPRPRPALCPRP, 0.555.
Regarding RRIRKRPPRLPRPRPRPWCPPRP, the “shrunken log2 fold change” value was 0.0532.
In the case of RRIRPRPPRLPRPRPRPTWFPRP, the “shrunken log2 fold change” value came to 0.0698.
RRIRARPPRLPRPRPRPQIIPRP: the “shrunken log2 fold change” value is 0.0561.
As for RRIRIRPPRLPRPRPRPMYVPRP, the figure is 0.00823; as for RRIRHRPPRLPRPRPRPMDMPRP, 0.0881; as for RRIRKRPPRLPRPRPRPLKTPRP, -0.151.
Regarding RRIRHRPPRLPRPRPRPHKYPRP, the “shrunken log2 fold change” value is -0.242.
With RRIRDRPPRLPRPRPRPGINPRP, the “shrunken log2 fold change” value stood at 0.0194.
On to RRIRRRPPRLPRPRPRPINYPRP, for which the “shrunken log2 fold change” value was -0.196.
Consider RRIRFRPPRLPRPRPRPHYVPRP, for which the “shrunken log2 fold change” value was -1.78.
The same measure for RRIRPRPPRLPRPRPRPDCCPRP: -0.0125; for RRIRVRPPRLPRPRPRPTYMPRP: -0.445; for RRIRCRPPRLPRPRPRPGWLPRP: 0.801.
The same measure for RRIRPRPPRLPRPRPRPVDRPRP: 0.115; for RRIRDRPPRLPRPRPRPPHAPRP: 0.631; for RRIRGRPPRLPRPRPRPLYCPRP: -0.0212.
As for RRIRPRPPRLPRPRPRPYCDPRP, the figure is -0.907; as for RRIRKRPPRLPRPRPRPYFCPRP, -0.288; as for RRIRQRPPRLPRPRPRPWQQPRP, -0.333.
On to RRIRHRPPRLPRPRPRPTQVPRP, for which the “shrunken log2 fold change” value was 0.172.
The same measure for RRIRTRPPRLPRPRPRPHWAPRP: 0.0228; for RRIRLRPPRLPRPRPRPCQEPRP: -0.0108; for RRIRTRPPRLPRPRPRPKGNPRP: -0.403.
On to RRIRIRPPRLPRPRPRPISAPRP, for which the “shrunken log2 fold change” value is -0.0879.
As for RRIRPRPPRLPRPRPRPCTRPRP, the figure is 2.07.
The same measure for RRIRWRPPRLPRPRPRPKNMPRP: -0.189; for RRIRMRPPRLPRPRPRPPFLPRP: 0.305; for RRIRPRPPRLPRPRPRPGMPPRP: -0.074.
As for RRIRMRPPRLPRPRPRPESMPRP, the figure is 2.6; as for RRIRPRPPRLPRPRPRPWGSPRP, 0.216; as for RRIRMRPPRLPRPRPRPMFGPRP, 0.0113.
With RRIRFRPPRLPRPRPRPSLIPRP, the “shrunken log2 fold change” value was -1.06.
As for RRIRHRPPRLPRPRPRPYWSPRP, the figure is -0.171.
As for RRIRVRPPRLPRPRPRPLQCPRP, the figure is -0.371; as for RRIRERPPRLPRPRPRPILDPRP, -0.209.
The same measure for RRIRHRPPRLPRPRPRPPVYPRP: 0.118; for RRIRRRPPRLPRPRPRPLCYPRP: -0.236.
Take RRIRERPPRLPRPRPRPRYPPRP: the “shrunken log2 fold change” value was determined as 0.00273.
The same measure for RRIRERPPRLPRPRPRPVWHPRP: -0.154; for RRIRPRPPRLPRPRPRPCVSPRP: -0.0858.
For the sequence RRIRLRPPRLPRPRPRPHPRPRP, the “shrunken log2 fold change” value worked out at 0.276.
The same measure for RRIRTRPPRLPRPRPRPPSRPRP: 0.191; for RRIRERPPRLPRPRPRPEHQPRP: 0.0588.
For RRIRYRPPRLPRPRPRPGLTPRP, the “shrunken log2 fold change” value was -0.21.
As for RRIRFRPPRLPRPRPRPNAAPRP, the figure is 0.419.
As for RRIRARPPRLPRPRPRPEDEPRP, the “shrunken log2 fold change” value turned out to be 0.182.
The same measure for RRIRPRPPRLPRPRPRPYFIPRP: -0.656; for RRIRVRPPRLPRPRPRPHLKPRP: -0.284.
As to RRIRHRPPRLPRPRPRPDWYPRP, the “shrunken log2 fold change” value was -0.061.
RRIRHRPPRLPRPRPRPYCLPRP: the “shrunken log2 fold change” value was -0.524.
On to RRIRHRPPRLPRPRPRPDQAPRP, for which the “shrunken log2 fold change” value was 0.106.
Take RRIRNRPPRLPRPRPRPYWHPRP: the “shrunken log2 fold change” value is -0.0277.
Consider RRIRYRPPRLPRPRPRPTRIPRP, for which the “shrunken log2 fold change” value was -0.0491.
In the case of RRIRKRPPRLPRPRPRPPYSPRP, the “shrunken log2 fold change” value was -0.433.
For RRIRVRPPRLPRPRPRPGCDPRP, the “shrunken log2 fold change” value came to 0.952.
As for RRIRLRPPRLPRPRPRPCNMPRP, the figure is 0.0385.
As for RRIRKRPPRLPRPRPRPDRMPRP, the figure is 1.19; as for RRIRWRPPRLPRPRPRPSMYPRP, -0.326; as for RRIRCRPPRLPRPRPRPEGKPRP, 0.31.
As for RRIRSRPPRLPRPRPRPSTMPRP, the figure is -0.455.
Turning to RRIRIRPPRLPRPRPRPLCKPRP, the “shrunken log2 fold change” value is -0.336.
As to RRIRRRPPRLPRPRPRPAQAPRP, the “shrunken log2 fold change” value came to 0.233.
As for RRIRDRPPRLPRPRPRPIRQPRP, the figure is 0.193; as for RRIRDRPPRLPRPRPRPWVTPRP, -0.0629; as for RRIRYRPPRLPRPRPRPVHEPRP, 0.0155.
Take RRIRHRPPRLPRPRPRPIWHPRP: the “shrunken log2 fold change” value is -0.327.
For RRIRSRPPRLPRPRPRPEKMPRP, the “shrunken log2 fold change” value turned out to be 0.061.
As for RRIRHRPPRLPRPRPRPCSHPRP, the “shrunken log2 fold change” value is -0.0787.
With RRIRRRPPRLPRPRPRPVYKPRP, the “shrunken log2 fold change” value came out at 0.0922.
For RRIRVRPPRLPRPRPRPFYPPRP, the “shrunken log2 fold change” value is -0.441.
The same measure for RRIRGRPPRLPRPRPRPPIFPRP: 0.35; for RRIRLRPPRLPRPRPRPPWIPRP: -0.35; for RRIRGRPPRLPRPRPRPAKFPRP: 0.549.
The same measure for RRIRYRPPRLPRPRPRPCGFPRP: -0.241.
As to RRIRERPPRLPRPRPRPPTSPRP, the “shrunken log2 fold change” value came to 0.0163.
In the case of RRIRGRPPRLPRPRPRPEELPRP, the “shrunken log2 fold change” value was 1.39.
For the sequence RRIRWRPPRLPRPRPRPMINPRP, the “shrunken log2 fold change” value was -0.212.
The same measure for RRIRGRPPRLPRPRPRPYITPRP: -0.302; for RRIRYRPPRLPRPRPRPNDPPRP: -0.549.
As for RRIRPRPPRLPRPRPRPVRRPRP, the figure is 0.418; as for RRIRYRPPRLPRPRPRPYDYPRP, -0.145; as for RRIRTRPPRLPRPRPRPTKAPRP, 0.249.
As for RRIRERPPRLPRPRPRPGVNPRP, the figure is 0.0154.
Consider RRIRERPPRLPRPRPRPFLKPRP, for which the “shrunken log2 fold change” value is -0.0233.
As for RRIRFRPPRLPRPRPRPVFLPRP, the figure is -0.327.
On to RRIRNRPPRLPRPRPRPWHYPRP, for which the “shrunken log2 fold change” value was -0.25.
As for RRIRYRPPRLPRPRPRPLQAPRP, the figure is -0.057.
For the sequence RRIRIRPPRLPRPRPRPCRCPRP, the “shrunken log2 fold change” value is -0.319.

Values taken from the supplement of paper PMC9112550, “Optimization of the antimicrobial peptide Bac7 by deep mutational scanning” (BMC Biology, 2022).
